Measurements reported in patent US20230365647A1 (published 2023).

T1: Mannose receptor C type 1 on human monocyte-derived dendritic cells (Homo sapiens, UniProt P22897 19-1456)
T1 construct: also called MRC-1
T1 sequence: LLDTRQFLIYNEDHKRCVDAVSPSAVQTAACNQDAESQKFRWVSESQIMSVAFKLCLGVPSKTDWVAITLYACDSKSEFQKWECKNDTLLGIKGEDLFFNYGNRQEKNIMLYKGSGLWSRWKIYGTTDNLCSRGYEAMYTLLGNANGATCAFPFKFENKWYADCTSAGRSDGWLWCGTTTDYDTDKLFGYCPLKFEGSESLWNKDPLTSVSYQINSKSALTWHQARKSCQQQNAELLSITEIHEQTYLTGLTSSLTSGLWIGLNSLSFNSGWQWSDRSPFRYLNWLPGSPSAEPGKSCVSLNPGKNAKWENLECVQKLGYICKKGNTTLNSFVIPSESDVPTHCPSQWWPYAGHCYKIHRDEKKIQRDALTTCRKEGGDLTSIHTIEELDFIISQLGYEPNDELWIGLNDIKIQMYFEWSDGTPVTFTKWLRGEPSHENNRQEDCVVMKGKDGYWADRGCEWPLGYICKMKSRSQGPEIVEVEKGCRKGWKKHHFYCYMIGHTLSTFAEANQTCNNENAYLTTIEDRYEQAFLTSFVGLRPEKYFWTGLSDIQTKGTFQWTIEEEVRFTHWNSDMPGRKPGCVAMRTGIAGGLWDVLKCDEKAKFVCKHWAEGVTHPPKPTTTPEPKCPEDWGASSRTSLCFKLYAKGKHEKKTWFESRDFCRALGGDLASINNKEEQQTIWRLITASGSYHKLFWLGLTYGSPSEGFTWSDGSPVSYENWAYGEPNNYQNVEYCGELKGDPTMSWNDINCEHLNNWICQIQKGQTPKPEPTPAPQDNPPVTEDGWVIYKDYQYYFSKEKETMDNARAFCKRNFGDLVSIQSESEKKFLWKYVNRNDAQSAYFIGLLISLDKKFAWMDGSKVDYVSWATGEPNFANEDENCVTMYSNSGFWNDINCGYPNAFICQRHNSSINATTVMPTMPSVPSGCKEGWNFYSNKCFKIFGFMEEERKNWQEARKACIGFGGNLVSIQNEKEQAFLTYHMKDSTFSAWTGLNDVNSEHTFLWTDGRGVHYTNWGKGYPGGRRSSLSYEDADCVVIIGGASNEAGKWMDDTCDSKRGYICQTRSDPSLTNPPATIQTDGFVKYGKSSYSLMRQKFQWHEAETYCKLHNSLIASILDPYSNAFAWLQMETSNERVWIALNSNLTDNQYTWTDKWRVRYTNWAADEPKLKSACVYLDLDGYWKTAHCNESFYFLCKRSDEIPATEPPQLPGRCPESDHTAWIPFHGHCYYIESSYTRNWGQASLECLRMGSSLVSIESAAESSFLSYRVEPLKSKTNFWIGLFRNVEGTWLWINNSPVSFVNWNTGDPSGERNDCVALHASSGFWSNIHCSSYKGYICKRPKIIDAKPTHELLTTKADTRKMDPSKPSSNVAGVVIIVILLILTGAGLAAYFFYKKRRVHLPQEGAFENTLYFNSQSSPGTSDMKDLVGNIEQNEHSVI

B1: LLO (W489F) toxoid (other)
chain: KDASAFNKENSISSMAPPASPPASPKTPIEKKHADEIDKYIQGLDYNKNNVLVYHGDAVTNVPPRKGYKDGNEYIVVEKKKKSINQNNADIQVVNAISSLTYPGALVKANSELVENQPDVLPVKRDSLTLSIDLPGMTNQDNKIVVKNATKSNVNNAVNTLVERWNEKYAQAYPNVSAKIDYDDEMAYSESQLIAKFGTAFKAVNNSLNVNFGAISEGKMQEEVISFKQIYYNVNVNEPTRPSRFFGKAVTKEQLQALGVNAENPPAYISSVAYGRQVYLKLSTNSHSTKVKAAFDAAVSGKSVSGDVELTNIIKNSSFKAVIYGGSAKDEVQIIDGNLGDLRDILKKGATFNRETPGVPIAYTTNFLKDNELAVIKNNSEYIETTSKAYTDGKINIDHSGGYVAQFNISWDEINYDPEGNEIVQHKNWSENNKSKLAHFTSSIYLPGNARNINVYAKECTGLAFEWWRTVIDDRNLPLVKNRNISIWGTTLYPKYSNSVDNPIE
B2: Pneumolysin (purified recombinant) (other)
chain: ANKAVNDFILAMNYDKKKLLTHQGESIENRFIKEGNQLPDEFVVIERKKRSLSTNTSDISVTATNDSRLYPGALLVVDETLLENNPTLLAVDRAPMTYSIDLPGLASSDSFLQVEDPSNSSVRGAVNDLLAKWHQDYGQVNNVPARMQYEKITAHSMEQLKVKFGSDFEKTGNSLDIDFNSVHSGEKQIQIVNFKQIYYTVSVDAVKNPGDVFQDTVTVEDLKQRGISAERPLVYISSVAYGRQVYLKLETTSKSDEVEAAFEALIKGVKVAPQTEWKQILDNTEVKAVILGGDPSSGARVVTGKVDMVEDLIQEGSRFTADHPGLPISYTTSFLRDNVVATFQNSTDYVETKVTAYRNGDLLLDHSGAYVAQYYITWNELSYDHQGKEVLTPKAWDRNGQDLTAHFTTSIPLKGNVRNLSVKIRECTGLAWEWWRTVYEKTDLPLVRKRTISIWGTTLYPQVEDKVEND
notes: also called PLY; Ply

Biological target: T1, Mannose receptor C type 1 on human …
Assay: immunofluorescence co-localization in human DCs

Binder | binding result
B1 | no binding (tested: 0.2 µg/ml)
B2 | binds
